Laboratory results taken from patent US20140057332A1, “GLUCO-OLIGOSACCHARIDE OXIDASES FROM ACREMONIUM STRICTUM AND USES THEREOF” (The Governing Council of the University of Toronto, priority 2011, published 2014).

Columns and labels:
[1] = Chromogenic H2O2 oxidase assay on xylohexaose; details: 1 mM xylohexaose; 37° C., 15 min
Protocol: (§1) A chromogenic assay was used to measure hydrogen peroxide production (15). Reactions contained 0.1 mM 4aminoantipyrine (4AA), 1 mM phenol, 0.5 U horseradish peroxidase, 40 mM Tris-HCl (pH 8.0), and different substrates were initiated by adding 0.2 μg of enzymes to the 250 μL reaction mixture. The production of H2O2 was coupled to the oxidation of 4aminoantipyrine by horseradish peroxidase and detected at 500 nm. Reactions were incubated at 37° C. for 15 min to measure the specific activity of GOOX on 10 mM of monosaccharide or 1 mM of oligosaccharide.
(§2) An additional eight mutations, identified as Y72F, Y72A, E247A, E314A, W351A, N388S, Q353N, Q384A, were created in GOOX-VN to assess the influence of these residues on the substrate selectivity of GOOX-VN. […] The specific activity of each mutant was then measured at 37° C. for 15 min using 10 mM mono-sugars and 1 mM oligosaccharides as performed for Y300A, Y300N, and W351F (Table 11).

[2] = Chromogenic H2O2 oxidase assay / kinetic analysis on xylobiose
Protocol: as §1
(§3) At least 12 substrate concentrations were included to obtain kinetic parameters for each substrate. Initial rates were obtained by measuring reaction products every 30 s for 15 min at 37° C. and pH 8.0, and kinetic parameters were calculated using the Michaelis-Menten equation (GraphPad Prism5 Software).

[3] = Chromogenic H2O2 oxidase assay / kinetic analysis on xylose
Protocol: as §1, §3

[4] = Chromogenic H2O2 oxidase assay on xylotetraose; details: 1 mM xylotetraose; 37° C., 15 min
Protocol: as §1, §2

[5] = Chromogenic H2O2 oxidase assay / kinetic analysis on maltose
Protocol: as §1, §3

[6] = Enzyme stability at 37° C. (residual activity on maltose); type: physicochemical; details: pre-incubation at 37° C. for 60 min; 10 mM maltose (FIG. 11)
Protocol: The enzyme stability was evaluated in triplicate by incubating 0.6 μg of each enzyme preparation in 40 mM Tris-HCl buffer (pH 8.0) for 0, 5, 15, 25, 35, and 60 min at 37° C. Residual enzyme activity was measured at 37° C. for 15 min at pH 8.0 using 10 mM maltose and 0.2 μg of protein.

B1: Acremonium strictum gluco-oligosaccharide oxidase GOOX-VN (type strain CBS 346.70, V38 and N388), SEQ ID NO. 2 (Sarocladium strictum; A38V/S388N) (protein)
chain: NSINACLAAADVEFHEEDSEGWEMDGTAFNLRVDYDPVAIAIPRSTEDIAAAVQCGLDAGVQISAKGGGHSYGSYGFGGEDGHLMLELDRMYRVSVDDDNVATIQGGARLGYTALELLDQGNRALTHGTCPAVGIGGHVLGGGYGFATHTHGLTLDWLVGATVVLADASIVHVSKTENADLFWALRGGGGGFAIVSEFEFNTFEAPEIITTYQVTTTWNRKQHVAGLKALQDWAENTMPRELSMRLEINANALNWEGNYFGNAKDLKKVLQPIMKKAGGKSTISKLVETDWYGQINTYLYGADLNITYNYDVHEYFYANSLTAPRLSDEAISAFVDYKFDNSSVRPGRGWWIQWDFHGGKNSALASHSNDETAYAHRDQLWLWQFYDNIYDYENNTSPYPESGFEFMQGFVATIEDTLPEDRKGKYFNYADTTLDKEEAQKLYWRGNLEKLQAIKAKYDPEDVFGNVVSVEPIA
Specific Activity of Enzyme Variants [1]: 11.0 µmol/min/mg | Specific Activity of Enzyme Variants ([2]; 1 mM xylobiose, 37° C., 15 min): 7.9 µmol/min/mg | Specific activity Defined substrate concentration ([2]; 1 mM xylobiose, 37° C., 15 min): 7.92 µmol/mg/min | Specific activity From Vmax ([2]; substrate xylobiose): 8.73 µmol/mg/min | Specific Activity of Enzyme Variants ([3]; 10 mM xylose, 37° C., 15 min): 0.4 µmol/min/mg | Specific activity Defined substrate concentration ([3]; 10 mM xylose, 37° C., 15 min): 0.42 µmol/mg/min | oxidation of xylose ([3]; after 3 min using 10 mM sugar): detected | Specific activity From Vmax ([3]; substrate xylose): 5.20 µmol/mg/min | Specific Activity of Enzyme Variants [4]: 10.2 µmol/min/mg | Specific Activity of Enzyme Variants ([5]; 1 mM maltose, 37° C., 15 min): 1.5 µmol/min/mg | Specific activity Defined substrate concentration ([5]; 1 mM maltose, 37° C., 15 min): 1.53 µmol/mg/min | Specific activity From Vmax ([5]; substrate maltose): 5.94 µmol/mg/min | activity following pre-incubation [6]: remained active
